Results as given in US20160176924A1 (UNIVERSITY OF COPENHAGEN, published 2016).
Read-outs that look alike come from different tables or passages of the source. Square brackets hold non-standard residues; d marks the D form. Primed or numbered codes have the meaning given here. Ends that are not written are not given here. * marks the point of attachment. PEG6‑diacid = 4,7,10,13,16,19,22-Heptaoxapentacosane-1,25-dioic acid, O=C(O)CCOCCOCCOCCOCCOCCOCCOCCC(=O)*; PEG8‑diacid = PEG8-diacid linker: 4,7,10,13,16,19,22,25,28-nonaoxahentriacontane-1,31-dioic acid; cyclohexylethyl″ = cyclohexylethyl group on the nitrogen (N-alkyl substituent), C1CCC(CC*)CC1; PEG4‑diacid = 4,7,10,13,16-pentaoxanonadecane-1,19-dioic acid; (naphthalen-2-yl)ethyl = c1ccc2cc(CC*)ccc2c1; Cyclohexylmethyl = C1CCC(C*)CC1; NMeE = CN[C@@H](CCC(=O)O)C(=O)O; cyclohexylethyl = C1CCC(CC*)CC1; NMeA = CN[C@@H](C)C(=O)O; Bn = c1ccc(C*)cc1

Key:
[1] = biological target: T1, HIS-PDZ2 protein (PSD-95 PDZ2, residues 155-249, with tag …) (human, UniProt P78352 155-249); assay: FP competition, fluorescent NR2B probe
[2] = biological target: T2, HIS-PDZ1-2 protein (PSD-95 PDZ1-2 tandem, residues 61-249, with tag …) (human, UniProt P78352 61-249); assay: ITC
[3] = biological target: T2, HIS-PDZ1-2 protein (PSD-95 PDZ1-2 …); assay: FP competition, fluorescent NR2B probe; exact Ki not calculable
[4] = biological target: T2, HIS-PDZ1-2 protein (PSD-95 PDZ1-2 …); assay: FP competition, fluorescent NR2B probe
[5] = biological target: T3, HIS-PDZ1 protein (PSD-95 PDZ1, residues 61-151, with tag …) (human, UniProt P78352 61-151); assay: FP competition, fluorescent NR2B probe
T3 construct: expressed in E. coli

[6] = biological target: T1, HIS-PDZ2 protein (PSD-95 PDZ2, residues …); assay: FP competition, fluorescent NR2B probe; remark: listed apart in the source
[7] = biological target: T4, HIS-PDZ3 protein (PSD-95 PDZ3, residues 309-401, with tag …) (human, UniProt P78352 309-401); assay: FP competition, fluorescent CRIPT probe
[8] = biological target: T3, HIS-PDZ1 protein (PSD-95 PDZ1, residues …); assay: FP competition assay (Ki), fluorescent NR2B probe displaced from the PDZ domain; bar chart
[9] = biological target: T1, HIS-PDZ2 protein (PSD-95 PDZ2, residues …); assay: as above
[10] = biological target: T3, HIS-PDZ1 protein (PSD-95 PDZ1, residues …); assay: FP competition, fluorescent NR2B probe; remark: listed apart in the source
[11] = biological target: T1, HIS-PDZ2 protein (PSD-95 PDZ2, residues …); assay: FP competition, fluorescent NR2B probe; remark: listed apart in the source
[12] = biological target: T4, HIS-PDZ3 protein (PSD-95 PDZ3, residues …); assay: FP competition, fluorescent CRIPT probe; remark: listed apart in the source
[13] = biological target: T3, HIS-PDZ1 protein (PSD-95 PDZ1, residues …); assay: FP competition, fluorescent NR2B probe; remark: listed apart in the source
[14] = biological target: T1, HIS-PDZ2 protein (PSD-95 PDZ2, residues …); assay: FP competition, fluorescent NR2B probe; remark: listed apart in the source

{PEG8‑diacid}-IESDV (also: dimer: two peptides N-terminally joined via PEG8-diacid, Dimeric ligand) [(IESDV)2PEG8 (76)]
Ki [1]: 2.6 µM
Kd [2]: 0.12 µM
Ki [3]: ~0.1 µM

{PEG4‑diacid}-IAT[NMeA]V-OH (also: dimer: two peptides N-terminally joined via PEG4-diacid, Dimeric ligand) [(IATAMeV)2PEG4 (90)]
Ki [4]: 13 µM
Ki [1]: 103 µM

B1: (IATAV)2PEG4 (88) (peptide)
peptide: IATAV
modifications: also: dimer: two peptides joined at N-terminal amines by amide bonds through a PEG4-diacid linker
notes: Dimeric ligand
Ki [4]: 1.1 µM

IAT[NMeA]V [IATAMeV (89)]
Ki [4]: 142 µM
Ki [1]: 104 µM

B2: (IATAV)2PEG12 (87) (peptide)
peptide: IATAV
modifications: also: dimer: two peptides joined at N-terminal amines by amide bonds through a PEG12-diacid linker
notes: Dimeric ligand
Ki [4]: 1 µM
Ki [1]: 13 µM

ATAV [ATAV (68)]
Ki [5]: 64 µM
Ki [6]: 73 µM
Ki [7]: 400 µM

ETNV (number 31 only on the sheet) [ETNV (31)]
binding result [8]: binds
binding result [9]: binds

{cyclohexylethyl″}-QTDV-OH [QTDV (70), N-cyclohexylethyl]
binding result [7]: no binding

Bn-ETAV [N-Benzyl-ETAV (58)]
Ki [10]: 7.2 µM
Ki [11]: 5.2 µM
Ki [12]: 63 µM

cyclohexylethyl-QTAV [QTAV (72), N-cyclohexylethyl]
Ki [5]: 21 µM
Ki [6]: 12 µM
Ki [7]: 141 µM

Phenylethyl-ETAV [N-Phenylethyl-ETAV (59)]
Ki [11]: 1.6 µM

B3: ETDV (69), N-cyclohexylethyl (peptide)
peptide: {cyclohexylethyl″}-ETDV-OH
SMILES: CC(C)[C@H](NC(=O)[C@H](CC(=O)O)NC(=O)[C@@H](NC(=O)[C@H](CCC(=O)O)NCCC1CCCCC1)[C@@H](C)O)C(=O)O
Ki [5]: 1.8 µM
Ki [6]: 0.75 µM
binding result [7]: no binding

[NMeE]TQV [EMeTQV (39)]
fold more potent than WT peptide 1 [13]: ~3 fold

cyclohexylethyl-ATAV [ATAV (73), N-cyclohexylethyl]
Ki [5]: 8.9 µM
Ki [6]: 8.1 µM
Ki [7]: 89 µM

B4: N-(3,4-Dichlorophenyl)propyl-ETAV (61) (peptide)
peptide: ETAV
modifications: not fully specified
notes: The printed formula C25H37Cl2N4O8 and the comparison with 59 point to an ethyl spacer, the printed name says propyl
Ki [10]: 2.4 µM
Ki [11]: 1.1 µM
Ki [12]: 6.7 µM

B5: ETDV (64) (peptide)
peptide: ETDV
notes: also called 28 (ESDV with Ser P^-2 replaced by Thr)
binding result [7]: no binding

B6: ATDV (71), N-cyclohexylethyl (peptide)
peptide: {cyclohexylethyl″}-ATDV-OH
SMILES: CC(C)[C@H](NC(=O)[C@H](CC(=O)O)NC(=O)[C@@H](NC(=O)[C@H](C)NCCC1CCCCC1)[C@@H](C)O)C(=O)O
Ki [5]: 5.8 µM
Ki [6]: 3.6 µM

[NMeE]TNV [Compound 38 (EMeTXV with X = Asn)]
binding result [8]: binds
binding result [9]: binds

B7: N-(3,4-Difluorophenyl)propyl-ETAV (62) (peptide)
peptide: ETAV
modifications: not fully specified
notes: The printed formula C25H37F2N4O8 points to an ethyl spacer, the printed name says propyl
Ki [10]: 0.98 µM
Ki [11]: 1 µM
Ki [12]: 7.8 µM

Et-ETAV [N-Ethyl-ETAV (52)]
Ki [10]: 9.3 µM
Ki [11]: 9.6 µM
Ki [12]: 69 µM

butyl-ETAV [N-Butyl-ETAV (54)]
Ki [10]: 8.4 µM
Ki [11]: 4 µM

ESQV [Compound 22 (ESDV with Asp P^-1 replaced by Gln)]
binding result [13]: binds
binding result [14]: binds

ETQV (number 32 only on the sheet) [ETQV (32)]
binding result [8]: binds
binding result [9]: binds

Cyclohexylmethyl-ETAV [N-Cyclohexylmethyl-ETAV (55)]
Ki [10]: 1 µM
Ki [11]: 1.3 µM
Ki [12]: 21 µM

QTAV [QTAV (67)]
Ki [5]: 112 µM
Ki [6]: 108 µM

ESNV [Compound 24 (ESDV with Asp P^-1 replaced by Asn)]
binding result [13]: binds
binding result [14]: binds

[NMeE]TDV [EMeTDV (36)]
fold more potent than WT peptide 1 [13]: ~3 fold

{(naphthalen-2-yl)ethyl}-ETAV [N-(Naphtalene-2-yl)ethyl-ETAV (63)]
Ki [10]: 1 µM
Ki [11]: 0.95 µM
Ki [12]: 10 µM

phenylpropyl-ETAV [N-Phenylpropyl-ETAV (60)]
Ki [11]: 3.1 µM

cyclohexylethyl-ETAV [N-Cyclohexylethyl-ETAV (56)]
Ki [10]: 0.94 µM
Ki [11]: 0.45 µM
Ki [12]: 11 µM
Ki [5]: 0.94 µM
Ki [6]: 0.45 µM
Ki [7]: 11 µM

ESEV [Compound 23 (ESDV with Asp P^-1 replaced by Glu)]
binding result [13]: binds
binding result [14]: binds

B8: Compound 85 (ESDV dimerized with PEG8) (peptide)
peptide: ESDV
modifications: also: dimer: two peptides joined at N-terminal amines by amide bonds through a PEG8-diacid linker
notes: Dimeric ligand
Ki [4]: 1 µM
Ki [1]: 19 µM

B9: Compound 84 (ESDV dimerized with PEG12) (peptide)
peptide: ESDV
modifications: also: dimer: two peptides joined at N-terminal amines by amide bonds through a PEG12-diacid linker
notes: Dimeric ligand
Ki [4]: 0.92 µM

ETAV [ETAV (51)]
Ki [12]: 260 µM
Ki [7]: 260 µM

QTDV [QTDV (65)]
Ki [5]: 58 µM
Ki [6]: 60 µM
binding result [7]: no binding

ATDV [ATDV (66)]
Ki [5]: 30 µM
Ki [6]: 38 µM
binding result [7]: no binding

[NMeE]SDV [Compound 18 (ESDV with N-methylated Glu at P^-3)]
fold higher Ki compared to peptide 1 [13]: 1.3 fold
fold higher Ki compared to peptide 1 [14]: 3.7 fold

{PEG6‑diacid}-IESDV (also: dimer: two peptides N-terminally joined via PEG6-diacid, Dimeric ligand) [(IESDV)2PEG6 (77)]
Ki [1]: 2 µM
Kd [2]: 0.039 µM
Ki [3]: ~0.1 µM

{PEG2‑diacid}-IESDV (also: dimer: two peptides N-terminally joined via PEG2-diacid, Dimeric ligand) [Compound 79 (IESDV dimerized with PEG2-diacid)]
Ki [4]: 0.27 µM
Ki [1]: 4.7 µM
Kd [2]: 0.22 µM

{PEG1‑diacid}-IESDV (also: dimer: two peptides N-terminally joined via PEG1-diacid, Dimeric ligand) [Compound 80 (IESDV dimerized with PEG1-diacid)]
Ki [4]: 0.56 µM
Ki [1]: 4.7 µM
Kd [2]: 0.46 µM
